In this experiment the target is KIR2DL1 on human NK cell clones (human) (UniProt P43626). The experiment is described as follows: cell-based or functional assay.

Some results are limits rather than exact numbers.

Sequence of UniProt P43626 (P43626 22-348): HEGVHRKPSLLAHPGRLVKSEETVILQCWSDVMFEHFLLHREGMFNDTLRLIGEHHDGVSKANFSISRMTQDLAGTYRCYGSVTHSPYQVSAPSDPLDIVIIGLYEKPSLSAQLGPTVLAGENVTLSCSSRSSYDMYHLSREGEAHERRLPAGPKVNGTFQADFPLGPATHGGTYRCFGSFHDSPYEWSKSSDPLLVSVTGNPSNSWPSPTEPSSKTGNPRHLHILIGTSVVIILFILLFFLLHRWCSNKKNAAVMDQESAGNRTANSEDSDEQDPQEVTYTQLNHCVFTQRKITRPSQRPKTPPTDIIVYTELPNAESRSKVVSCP

In the case of “EB6 monoclonal antibody (IgG1, anti KIR2DL1)”, the lysis of autologous Cw4+ PHA blasts by NK cells with Campath is greater than 30%.

Source of the values: patent US20150299319A1.
